Experimental findings from a protein production outcome set (Wang et al. 2014) are described below.
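Note: failed if final PepcDB status was selected cloned or expressed and not failed if soluble or beyond.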

This data set is described as follows: label from the status in PepcDB records.
For “TIDLDYQRLALESLRFGHQKILEKIAKEKPKTNASNEDEDNLNASMIVTDTSTGKILALVGGIDYKKSAFNRATQAKRQFGSAIKPFVYQIAFDNGYSTTSKIPDTARNFENGNYSKNSEQNHAWHPSNYSRKFLGLVTLQEALSHSLNLATINLSDQLGFEKIYQSLSDMGFKNLPKDLSIVLGSFAISPIDAAEKYSLFSNYGTMLKPMLIESITNQQNDVKTFTPMETKKITSKEQAFLTLSVLMDAVENGTGSLARIKGLEIAGKTGTSNNNIDAWFIGFTPTLQSVIWFGRDDNTPISKGATGGVVSAPVYSYFMRNILAIEPSLKR”, the protein production entry is reported as “failed”.
Then “MSLKITKVEVIPISTPMKRAQLMRGATLARIDGVLLKLHSDEGLVGIADAGDTSSWYRGETQDSITSMICDFFAPKVLLGEDPTKIEKIVGRMDILTRDNNQAKATVDFALHDLVGKRFGVPVYQLLGGKTIERIPLGLVLGAGEPEAVAEEALAVLREGFHFVKLKAGGPLKADIAMVAEVRRAVGDDVDLFIDINGAWTYDQALTTIRALEKYNLSKIEQPLPAWDLDGMARLRGKVATPIYADESAQELHDLLAIINKGAADGLMIKTQKAGGLLKAQRWLTLARLANLPVICGCMVGSGLEASPAAHLLAANDWIAQFPQENAGPLHIHDCLNSRDIDNDIALNVPRFEGGYLYPNDGPGLGIELNEDLVRRLVTPGKAARVVTAEGHHHHHH”, with “not failed”; and “MIKILETESSLGWGGQENRTARLINHLDPTRFRVYVATPKDSELYKRRQEIRAEFFPVEMRKSYSLKAIWQLYKIIKKERIDIVSTHSGKDAWLGVIAARLAGVKAIRTRHLQTPISSPLSYNLHDKVVCVSDFVKEDLAKRGVQKGRLCTIHTGVDVSKYAPHREGILRRELGLREEEILVGIVAVLRGAKGHKLLLEAFAKLSSSTARLVIIGDGPQRENIALIVEQLNLQERVVMLGHREDVAKIMPDLDIFVLSSSMEALGTAILEASACGVAVLGSNVGGIPECVRENGQLFEAGDSDSLVKNLQALINDTSKRKERGAKGRVLVEEEFSVEAMVRKTEGLYREIITPQKILIVSNTALGDTILSTPLFRETRLALPKAHITALLNPVNAMLFETNPYLDKIELYGGRWRGFLGAWWKLWRRGFDVALLGHSNDPQITPLCLLLGISKIIKIPNHKNPWQRFHHNPPASPIEDQYAVLTRLLTLKYIGIESSNTRLELFLKEEWTTEAKEILRPFGQKKLIGIQMGASNRSRQWFVERWIELAKRIIERDEEVVIVFVGSKNELEEISLVAQALPQDRVFISAGRLSLGAAAALIGELGLLFTPDTGPLHIAVALRVKTISLFAVANPKNSLPDYDQSLHRYIKVDRCCEPCVGKRCAYQKCMEAIGVDEVYEEYKKLQE”, with “failed”; and “MPAPTHGCPLPRFSVIVPAYKVQAYLHECLESVLEQSFPDLELIAVDDCSPDACGAIIDEFAARDTRVRPVHLPQNTGLGRARNAALAEATGDYLIFLDADDSLTPGALQAVADRIKETSEPDVLVYDYARTFWSGETVRNREAGQLTEQGPAPFRLDDRPGLLNVLMVVWNKAYRREFVEREGFTFPPGLYEDTPWTYPALMAAETVATLDRVCVHYRQRRRGNILGTTGRGHFDIFGQYDRVFAYLDGHPELAHWRPVLFRRMVDHVATVFTRRGRLPRGSHAEFLRRARAHYRRHRTPGPPARPRFRLRHVLVRLGSHRTYRLLSLASRTRVRTARSATAVLGRLAGVALQAHYRLQRRLPVRADRAVFASHQGQGHGCNPGALEAAFRTLAPHIRTAWIARPEHHHTVPAATRRVRPGSAAYWTALARSKYLVSNADFDRRLRKRPGQIVIQTHAGTPLKRMGLDLQDRPAAARDTDFAQVLRGADQWDYCLSANRHSTLVWERVFPSGFTTLEYGQPRNDRFQQATSADVTRLRESLGIPHGSVAILYAPTYRDYRRSQRHLLDLERVLRQLGPRYVVLTRAHPSYGAPLTRSDGARLIDVSGHPSVESLCLASDALVTDYSSLMFDYANLDRPIVVYADDWEAYEAARGTYFDLRAFPPGAVARTEEELIDIFATGHWRGSRAAQLRAAFRARFCPYDDGRAAERVVRRIVLGEGAREGERNSEGDGGATGLPPVVPLAGRHPVPSAAAALARPPLATVPHPAGPVPVVDSP”, with “failed”.
Then “MPAKPIDLGPMHFEKKEDAVAYLHKMLHRYDLGDKVSDDDAIILRAALAHHRDAEVKVGCGITYFSVRTADFGTRCFWLNRNDGTTEKFSHKTCIYSTLEHHHHHH”, with “not failed”; and “MEITLNSGFKMPIIGLGVWRMEKEELRDLIIDAIKIGYRHLDCAANYKNEAEVGEALTEAFTTGLVKREDLFITTKLWSSDHGHVIEACKDSLKKLQLDYLDLFLVHIPIATKHTGIGTTDSALGDDGVLDIDTTISLETTWHDMEKLVSMGLVRSIGISNYDVFLTRDCLAYSKIKPAVNQIETHPYFQRDSLVKFCQKHGICVTAHTPLGGATANAEWFGTVSCLDDPVLKDVAEKYKQTVAQIVLRWGIQRNTVVIPKTSKPERLEENFQVFDFQLSKEDMEVIKSMERNYRTHQTAKFWGIELYA”, with “not failed”; and “MELSAIGEQVFAVESIRKKRVRKGKVEYLVKWKGWPPKYSTWEPEEHILDPRLVMAYEEKEERDRASGYRKRGPKPKRLLLQRLYSMDLRSSHKAKGKEKLCFSLTCPLGSGSPEGVVKAGAPELVDKGPLVPTLPFPLRKPRKAHKYLRLSRKKFPPRGPNLESHSHRRELFLQEPPAPDVLQAAGEWEPAAQPPEEEADADLAEGPPPWTPALPSSEVTVTDITANSITVTFREAQAAEGFFRDRSGKF”, with “failed”.
For the sequence “MDITNIKEMNYEEVFSITITVDKPILIGQDDIVGRRQLIPIISGKVSGNNFNGKVLPGGIDSQIVRPDGKCELSARYAIRLDDGAAIYIENNGIRTVPDEYIEAVKSGEFVDPNAYYFRTIPTFETYSPKYKWMMNHIFVCCASRLPENVLLKFYKIS”, the protein production result was “not failed”.
Then “MATIAAADRTVTSVRPAELGVKVVIVMALLLIVMLIFAYKVVSLHNMKDEPFWAAYGLIITAFIFTRFGLAALYRPPRRDTGNYWPVVAIIVPAYNEPDIARTLLHCVGVDYPRELLRVVVVDDKSSDDTLRRITDFAAEHPNLTVIPHEVNGGKRRAMATGMAAADDADLFVFIDSDSQVTRDAIRVIASYFADSSVGAVCGHTDVTNISHNILTRMQAMQYYIAFRIYKSAEALFGSVTCCSGCFSAYRADAVRPVADKWLNQTFLGRPSTFGDDRSLTNYLLRDWRVLYAPDAQAYTNVPEHLKQFLRQQLRWKKSWLREAPRAMCAVRRKNPVMVVMFALSIVLPLIAPQVVMRAFVVQPHFISQLPFWYFGGVAAIAVIYGLFYRLHRPVKRWYQGIFFTMFYTIILVLQMPYAMVTIRDSKWGTR”, with “failed”; and “MDIRTITSSDYEMVTSVLNEWWGGRQLKEKLPRLFFEHFQDTSFITSEHNSMTGFLIGFQSQSDPETAYIHFSGVHPDFRKMQIGKQLYDVFIETVKQRGCTRVKCVTSPVNKVSIAYHTKLGFDIEKGTKTVNGISVFANYDGPGQDRVLFVKNI”, with “not failed”.
Then “MCVSSSIQTAILDWQCVDGIDIPVSRQFGDVYFSKDNGLLETRHVFLNGNNLTERLADLKPYQYFCVGETGFGTGLNILAVWQLWQQVRPDNHSHLHVISVEKFPLSKSDLERALRAWPELIILAEQLIEQYPFPIAGCHRLNFPDERFSLDLWLGDAHDVFPSIVKTHSVDAWFLDGFAPSCNPELWETQVLNQIVRLSDYGTTFASFSVAGILKRGLKAHGIHISRPRGFGHKREMLKAIWPFPDHESTTTVKGNQPSTQQHFAVIGAGIAGLHCAWSLAQRGHRVTLVDQSQPLSGASGNPLALLNPKLCPITQCHDHLMVLCWQYARRFYQNFEAFRLIQVNQLALKASDSLLNLAEQYPKDVLDAHSAQQSPLETQYDYLTLHYAGVISPQLFCNQVLQHPLIEFKQFKINQIIEIDGTVQLLSSEQAILESNAAIVCCARESGKLFEQYPTLKPIRGQVSWFEQHTFPFAPDQAFSYGGYCMQLHPQQLILGASFHPQRDDDEVLLEDHVHNFNLIHSVFPAYAQTLPPVEEWHGRASVRAQSPDYFPLVGQLQDHSKLFTLAGLGSKGYLFAPLNSEILVAHILGEACPVSANLLQKLNPQRFLKKVKIKKPYYSS”, with “failed”.
Take PVGWQCPGCTFINKPTRPGCEMCCRARPEAYQVPASYQP: the protein production result was “not failed”.
